PMC5159498, “IQGAP1 Interaction with RHO Family Proteins Revisited” (The Journal of Biological Chemistry, 2016)

Legend:
Assay in all cases: stopped-flow fluorometry; tGppNHp (tamra-GppNHp)-bound CDC42 or CDC42 Q61L (0.2 μM) rapidly mixed with IQGAP1 variant (2-10 μM GRD1-CT for Q61L); Kd = koff/kon; 30 mM Tris-HCl pH 7.5, 10 mM KH2PO4/K2HPO4, 5 mM MgCl2, 3 mM DTT
Settings in all cases: both partners purified
[1] = target: T1, IQGAP1 GRD1-CT (aa 863-1657) (human, UniProt P46940 863-1657)
T1 construct: human IQGAP1, GRD, RGCT and CT domains, aa 863-1657; The GST tag was cleaved 'if needed'; also called C-terminal half of IQGAP1; C-terminal 795 amino acids of IQGAP1
T1 sequence (looked up): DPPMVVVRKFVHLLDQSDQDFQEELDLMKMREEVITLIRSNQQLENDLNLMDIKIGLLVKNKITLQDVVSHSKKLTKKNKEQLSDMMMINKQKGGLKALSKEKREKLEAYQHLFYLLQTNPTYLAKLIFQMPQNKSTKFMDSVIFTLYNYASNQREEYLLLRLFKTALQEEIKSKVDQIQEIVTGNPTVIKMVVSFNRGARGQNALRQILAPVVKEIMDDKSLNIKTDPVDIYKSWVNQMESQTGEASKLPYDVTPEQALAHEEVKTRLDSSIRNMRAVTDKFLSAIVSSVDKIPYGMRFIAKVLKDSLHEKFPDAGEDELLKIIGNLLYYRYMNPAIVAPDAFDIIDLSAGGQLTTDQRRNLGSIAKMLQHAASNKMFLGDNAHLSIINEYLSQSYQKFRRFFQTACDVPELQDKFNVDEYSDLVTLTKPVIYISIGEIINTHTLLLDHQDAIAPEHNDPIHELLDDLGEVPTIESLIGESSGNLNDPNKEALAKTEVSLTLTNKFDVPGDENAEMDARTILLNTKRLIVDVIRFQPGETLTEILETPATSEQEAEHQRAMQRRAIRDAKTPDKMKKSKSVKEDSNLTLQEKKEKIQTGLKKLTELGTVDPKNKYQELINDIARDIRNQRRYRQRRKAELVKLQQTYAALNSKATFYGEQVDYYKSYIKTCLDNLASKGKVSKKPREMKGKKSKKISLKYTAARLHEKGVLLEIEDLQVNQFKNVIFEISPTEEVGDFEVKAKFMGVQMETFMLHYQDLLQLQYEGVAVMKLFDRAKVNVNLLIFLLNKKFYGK

[2] = target: T2, IQGAP1 GRD1-RGCT wild type (aa 877-1558) (human, UniProt P46940 877-1558)
T2 construct: human IQGAP1, GRD and RGCT domains, lacks the last 99 amino acids, aa 877-1558; also called GRD1-RGCT^WT; IQGAP1^877-1558
T2 sequence (looked up): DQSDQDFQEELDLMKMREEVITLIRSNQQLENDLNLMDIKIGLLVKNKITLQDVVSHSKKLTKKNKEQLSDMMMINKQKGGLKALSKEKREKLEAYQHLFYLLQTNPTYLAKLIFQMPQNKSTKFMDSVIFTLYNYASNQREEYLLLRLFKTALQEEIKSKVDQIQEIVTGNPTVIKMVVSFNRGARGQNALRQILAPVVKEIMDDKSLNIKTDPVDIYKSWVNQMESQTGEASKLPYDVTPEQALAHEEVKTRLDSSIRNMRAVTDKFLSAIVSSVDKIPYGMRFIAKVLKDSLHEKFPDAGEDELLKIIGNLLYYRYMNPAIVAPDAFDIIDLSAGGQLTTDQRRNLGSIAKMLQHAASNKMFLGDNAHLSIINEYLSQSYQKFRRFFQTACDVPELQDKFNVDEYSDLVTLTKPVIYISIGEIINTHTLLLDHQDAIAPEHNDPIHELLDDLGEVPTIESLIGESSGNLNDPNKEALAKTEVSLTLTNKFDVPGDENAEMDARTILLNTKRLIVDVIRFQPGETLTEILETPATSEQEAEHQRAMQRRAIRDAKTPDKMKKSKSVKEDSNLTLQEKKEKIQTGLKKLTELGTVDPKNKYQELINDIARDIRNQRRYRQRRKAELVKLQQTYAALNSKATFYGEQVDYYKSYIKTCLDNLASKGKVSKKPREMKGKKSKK

[3] = target: T3, IQGAP1 GRD1-RGCT S1443E (aa 877-1558) (human, UniProt P46940 877-1558, S1443E)
T3 construct: human IQGAP1 aa 877-1558 with the phosphomimetic mutation S1443E (printed as S1143E in the methods, S1443E everywhere else), from the vector pET46 EkLIC; source: E. coli (pLysS BL21(DE3), CodonPlusRIL or BL21(Rosetta)), purified (Ni-NTA, gel filtration)
T3 sequence (looked up): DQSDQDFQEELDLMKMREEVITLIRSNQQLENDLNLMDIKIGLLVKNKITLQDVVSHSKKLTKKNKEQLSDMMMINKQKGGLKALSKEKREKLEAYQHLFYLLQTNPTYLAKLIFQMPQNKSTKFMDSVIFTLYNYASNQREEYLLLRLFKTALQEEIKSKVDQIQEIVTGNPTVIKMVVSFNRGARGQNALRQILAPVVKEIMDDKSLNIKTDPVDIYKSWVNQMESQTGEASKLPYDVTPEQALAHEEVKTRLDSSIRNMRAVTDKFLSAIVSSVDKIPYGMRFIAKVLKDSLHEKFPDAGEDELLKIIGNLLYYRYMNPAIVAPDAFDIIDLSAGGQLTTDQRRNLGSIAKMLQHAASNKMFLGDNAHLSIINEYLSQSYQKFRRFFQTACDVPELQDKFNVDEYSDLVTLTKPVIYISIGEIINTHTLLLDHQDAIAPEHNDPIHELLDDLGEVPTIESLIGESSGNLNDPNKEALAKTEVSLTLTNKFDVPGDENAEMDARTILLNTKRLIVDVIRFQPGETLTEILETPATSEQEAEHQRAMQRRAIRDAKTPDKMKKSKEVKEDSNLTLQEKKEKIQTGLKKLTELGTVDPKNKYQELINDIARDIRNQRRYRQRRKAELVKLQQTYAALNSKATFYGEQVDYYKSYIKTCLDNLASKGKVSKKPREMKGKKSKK

B1: CDC42 (aa 1-178) (domain or fragment)
chain: not shown
notes: human CDC42, C-terminally truncated, aa 1-178; Loaded non-covalently with mGppNHp, tGppNHp, mGDP or non-fluorescent GppNHp; the nucleotide is named in the format of each assay; also called CDC42^WT; CDC42-mGppNHp
Kd [1]: 380 nM | Kd [2]: 1450 nM | Kd [3]: 4190 nM
